Test results published in publication doi:10.1101/2023.03.10.531533 (bioRxiv, 2023).

Experiments:
[1] = molecular target: recombinant SARS-CoV-2 S-6P spike protein (SARS-CoV-2 Wuhan, UniProt P0DTC2, stabilised); experiment: ELISA
[2] = molecular target: SARS-CoV-2 Wuhan spike protein on HEK293T cells (SARS-CoV-2 Wuhan, UniProt P0DTC2); experiment: flow cytometry on cells
[3] = molecular target: recombinant prefusion stabilized SARS-CoV-2 spike protein (S-2P) (SARS-CoV-2 Wuhan, UniProt P0DTC2, stabilised); experiment: HDX-MS

Measured: binding result

B1: VHH R3DC23 (VHH)
VHH: QVQLQESGGGLVQAGDSLTLSCAVSGRIFSTYTMGWFRQAPGKEREFVAAVRWGAGTIYYADSMKGRFTISRDSAKNTVDLQMNSTKPEDTAVYYCGAAYVSKANYGSLWYQDSRRYDYWGQGTQVTVSS
binds: all assays above
